Experiments:
[1] = target: ribulose-1,5-bisphosphate carboxylase/oxygenase (RuBisCO) large subunit of Serratia sp. ISTD04 (Serratia sp. ISTD04 (endogenous)); test: SEC; native RuBisCO purified from Serratia sp. ISTD04, Superdex 200 FPLC gel filtration in buffer A (200 mM Tris-Cl, 10 mM MgCl2, 132 mM KHCO3, 10 mM DTT, ATP, pH 7.8), 0.5 ml/min, 4°C; subunits of the eluted enzyme shown by SDS-PAGE (12%)
[2] = target: ribulose-1,5-bisphosphate carboxylase/oxygenase (RuBisCO) small subunit of Serratia sp. ISTD04 (Serratia sp. ISTD04 (endogenous)); test: as above

| stoichiometry N [1] | stoichiometry N [2] | Substance |
| --- | --- | --- |
| 8 | – | ribulose-1,5-bisphosphate carboxylase/oxygenase (RuBisCO) large subunit of Serratia sp. ISTD04 (natural protein) |
| – | 8 | ribulose-1,5-bisphosphate carboxylase/oxygenase (RuBisCO) small subunit of Serratia sp. ISTD04 (natural protein) |
